Results published in the supplement of paper PMC12764529.
± gives the half width of the 95% confidence interval.

How the values were obtained:
[1] = folding stability dG unfold from trypsin proteolysis; higher = more stable
Protocol: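 Folding stability of de novo designed mini-proteins (<80 aa, no Cys; designed by TrROS, TrMRF, ProteinMPNN and the joint model) was measured by cDNA display proteolysis with trypsin and chymotrypsin. Each protease was used at 11 concentrations in a threefold dilution series plus a no-protease condition. K50 was inferred by Bayesian fitting of sequencing counts, and dG unfold was derived against a sequence-predicted unfolded-state K50 (Tsuboyama et al. method). Sequences shown include variable-length N-terminal GS-type padding (SAGGSAGG...) inside a display construct carrying a PA tag. Rows were kept only if the AF2 dimer inter-PAE was >15, to exclude likely homo-oligomers.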

[2] = folding stability dG unfold (combined trypsin and chymotrypsin); higher = more stable
Summary of the method: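 K50 was inferred by Bayesian fitting of sequencing counts obtained after protease digestion of designed mini-proteins. Unfolding free energy was derived by comparison with a sequence-predicted unfolded-state K50 and a shared folded-state K50, for each protease or both combined. The mini-proteins were under 80 residues, had no cysteine, were carried in a PA-tagged cDNA display construct, and were kept only if AlphaFold2 dimer inter-PAE exceeded 15.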

SAGGSAGGSAGGMNTNPKFVSEEDDKEIYREYNPSTGKETYIIYYPKPNTKKIVPPELISAGGSAGGSAGGS [r10_172_JUSTAS]
folding stability dG unfold [1]: -2.65 ± 0.962 kJ/mol | folding stability dG unfold [2]: < -4.18 kJ/mol

SAGGSAGGSASMTITLPGMSLEEAKAAAEAHPDHPVLLETPEGRLIEITPEGVVTVRPLPESAGGSAGGSAG [r3_269_JUSTAS]
folding stability dG unfold [1]: -0.613 ± 0.121 kJ/mol | folding stability dG unfold [2]: -3.92 ± 0.711 kJ/mol

SAGGSAGGSAGGKIKVVFELPDAPLFLVAEADSPEELLERAVKLEEELGVPLKVVKVEGSAGGSAGGSAGGS [r10_1087_TrMRF]
folding stability dG unfold [1]: -2.13 ± 0.962 kJ/mol | folding stability dG unfold [2]: < -4.18 kJ/mol

SAGGMTTTVTVEKFPDGSVTEVTTLPNGIVLTTPLPYTKVVPVDPPDGPAVSWGPVTVTSTESVSSEASAGG [r13_236_JUSTAS]
folding stability dG unfold [1]: 1.65 ± 0.285 kJ/mol | folding stability dG unfold [2]: 0.376 ± 1.09 kJ/mol

SAGGMNPDNFKPVRTYTLPFDGHKIEVEVWEPPNGNPLIPIQLEDDNGKPKGPQWIPPDQIDENGKILSAGG [r13_447_TrROS]
folding stability dG unfold [1]: 1.43 ± 0.381 kJ/mol | folding stability dG unfold [2]: -0.893 ± 1.17 kJ/mol

SAGGSAGGSAGPKPIRIKVKWRNEKDGEKRKVTIPIPPGMPLEELIKNADPNQVRDVEIVSAGGSAGGSAGG [r11_386_TrROS]
folding stability dG unfold [1]: -1.16 ± 0.418 kJ/mol | folding stability dG unfold [2]: < -4.18 kJ/mol

SAGGSAGGAEITIELTEDGTLRITVDGKKLEIRLEPAPPPVEVKTERVLDPDTDELTTRTETVLSAGGSAGG [r6_34_TrROS_Hall]
folding stability dG unfold [1]: 0.851 ± 0.795 kJ/mol | folding stability dG unfold [2]: -2.29 ± 1.8 kJ/mol

SAGGSAGGSAGMPPGSIKVTVTSTAPDGTPSTTESTIPPSQVDKVKAEAAAKGWTVSFTGSAGGSAGGSAGG [r11_603_JUSTAS]
folding stability dG unfold [1]: 2.74 ± 0.142 kJ/mol | folding stability dG unfold [2]: 1.03 ± 0.285 kJ/mol

SDLRNMPIEELAKRIAREHGIEDVKVEVSRTGDSLTIPIEIRDPEQGMKYKVMIMVDPPDDGRIGIGVERSA [r9_1042_TrROS]
folding stability dG unfold [1]: 1.15 ± 1.21 kJ/mol | folding stability dG unfold [2]: 0.0926 ± 1.76 kJ/mol

SAGGAVTSVSPGNGTTTVTVPISVPGSPVTLNIPTPDATLTPDPSGTVTVTLPPNGTYSITITGPRSDSAGG [r19_227_JUSTAS]
folding stability dG unfold [1]: -2.88 ± 0.669 kJ/mol | folding stability dG unfold [2]: < -4.18 kJ/mol

SAGGSAMPPEWQREVVLTPVEIDIPEPPEVEVVEYDPSTGTITISVPKSPLTLTYDALTGTVHTIGSAGGSA [r15_452_JUSTAS]
folding stability dG unfold [1]: -2.04 ± 2.55 kJ/mol | folding stability dG unfold [2]: -3.65 ± 1.97 kJ/mol

SAGGMYTLSEKTLPDGSKLLTVTRPDKPEEVFLPKEAENLPPETPVTTRGAGGEEVRPVAEILPPALLSAGG [r13_97_JUSTAS]
folding stability dG unfold [1]: 1.08 ± 0.46 kJ/mol | folding stability dG unfold [2]: -0.9 ± 0.753 kJ/mol

SAGPKVVKIEFLEDNTAKITVEVGSKPVEVEVPVGSVFLIPGGEKIEVIEPGKAKVSPLPEVDVDPEKSAGG [r19_17_TrMRF]
folding stability dG unfold [1]: -3.55 ± 1.38 kJ/mol | folding stability dG unfold [2]: < -4.18 kJ/mol

SAGGSAGGSMVYVVKVEIPETGEEYEFLNPEDKETVEREVRELFPDPEVKAEIEEIEVEPELLSAGGSAGGS [r12_92_TrMRF]
folding stability dG unfold [1]: -0.732 ± 0.628 kJ/mol | folding stability dG unfold [2]: < -4.18 kJ/mol

SAGPPNMEPVETHTFPFPGKKIKIKVYRNPDGHVKIKLEDPGKKIEQSAPVPPGEPVEIPIRLPNGKPISAG [r5_878_TrROS]
folding stability dG unfold [1]: -3.78 ± 2.18 kJ/mol | folding stability dG unfold [2]: < -4.18 kJ/mol

SANFDKAPPIEVKTEVSSFPADEEKIDPKTGKKSKRKRTITPVTVTKDGKTYTSTTTTYPDGSTETTTSSAG [r14_225_JUSTAS]
folding stability dG unfold [1]: -0.191 ± 0.837 kJ/mol | folding stability dG unfold [2]: -1.04 ± 1 kJ/mol

SAGGSAGGSAGGSMYVIVTVPPGERLTFPLNPEIDVPEEEIKEKLKKELPVESIEILLPSAGGSAGGSAGGS [r4_116_JUSTAS]
folding stability dG unfold [1]: -1.51 ± 0.795 kJ/mol | folding stability dG unfold [2]: -3.4 ± 4.14 kJ/mol

SAGGSADSVMIPVESPEEIKEELQEGPPKRVELPNPDGERYWIQIDWDDPENIEVMPPDDPEKMKPSAGGSA [r15_11_TrROS]
folding stability dG unfold [1]: 3 ± 0.544 kJ/mol | folding stability dG unfold [2]: 0.367 ± 1.17 kJ/mol

SAGKNPGPVLILADGGEEGVKAVAYFPDGPLETEFPGSGDIAIVIPPGLTPSDVLKAAAVALKEAAESSAGG [r19_170_TrMRF]
folding stability dG unfold [1]: 1.66 ± 0.155 kJ/mol | folding stability dG unfold [2]: -1.41 ± 1 kJ/mol

SAPDNIKVDINIERNPEDGHIRVEMEIEYPDGNEVYHSAWIDPDNGKIEIDVQVPNGKQIAEETIQIKPSAG [r14_524_TrROS]
folding stability dG unfold [1]: 0.694 ± 0.406 kJ/mol | folding stability dG unfold [2]: < -4.18 kJ/mol

SAGGETEVVETNASPAELAERVAEALAAGREVTVTLPDGTVLDAGPDLADLPADTPVRLEFTPAVAASAGGS [r16_31_JUSTAS]
folding stability dG unfold [1]: 3.52 ± 0.134 kJ/mol | folding stability dG unfold [2]: 1.08 ± 0.711 kJ/mol

SAGGFKITEVEKDEKKGYPWVSIRIPPKSTLKKLKNMPGPVRIHNPEPGQWIHMPVDDPEEFLDKLLKSAGG [r13_604_TrROS]
folding stability dG unfold [1]: 1.15 ± 0.753 kJ/mol | folding stability dG unfold [2]: -2.16 ± 3.93 kJ/mol

SAGGSAGGSMKPEVVEEIIKKAEEEGYEIDSVTVNPETNVPVIHFNWPSPELAEKDPELREAASAGGSAGGS [r12_482_TrMRF]
folding stability dG unfold [1]: 0.544 ± 0.502 kJ/mol | folding stability dG unfold [2]: < -4.18 kJ/mol

SAGGSAGGSASKYVKVTVRLTPPDGTTRTVEITDPNKTVEEIIASLPSDEPVEVTEVEELPPSAGGSAGGSA [r18_32_JUSTAS]
folding stability dG unfold [1]: 0.825 ± 0.753 kJ/mol | folding stability dG unfold [2]: -3.37 ± 2.05 kJ/mol
